Test results taken from paper PMC5716069.
Read-outs that look alike come from different tables or passages of the source.

Tests used:
Loqs-PDΔNC [1] = biological target: T1, Loqs-PDΔNC (Drosophila melanogaster, UniProt Q9VJY9-4 129-322); test: fluorescence anisotropy and EMSA
T1 sequence: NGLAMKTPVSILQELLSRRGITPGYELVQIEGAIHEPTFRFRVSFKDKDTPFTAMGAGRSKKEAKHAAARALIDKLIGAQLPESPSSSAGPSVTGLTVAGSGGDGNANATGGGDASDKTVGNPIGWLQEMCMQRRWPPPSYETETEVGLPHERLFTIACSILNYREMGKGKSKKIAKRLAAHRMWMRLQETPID

Loqs dsRBD2 [2] = biological target: T2, Loqs dsRBD2 (Drosophila melanogaster, UniProt Q9VJY9-4 245-322); test: fluorescence anisotropy and EMSA
T2 sequence: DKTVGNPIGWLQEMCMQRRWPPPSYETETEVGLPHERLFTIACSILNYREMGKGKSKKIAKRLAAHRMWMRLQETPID

Loqs-PDΔNC [3] = biological target: T1, Loqs-PDΔNC; test: NMR titration
Loqs dsRBD2 [4] = biological target: T2, Loqs dsRBD2; test: NMR titration
Loqs dsRBD1 [5] = biological target: T3, Loqs dsRBD1 (Drosophila melanogaster, UniProt Q9VJY9-4 129-211); test: NMR titration
T3 sequence: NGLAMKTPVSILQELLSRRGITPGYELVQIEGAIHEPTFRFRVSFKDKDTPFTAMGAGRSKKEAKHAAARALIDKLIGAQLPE

Loqs-PDΔNC Δ41 = biological target: T4, Loqs-PDΔNC Δ41 (Drosophila melanogaster, UniProt Q9VJY9-4 129-322, del209-249); test: NMR titration
T4 sequence: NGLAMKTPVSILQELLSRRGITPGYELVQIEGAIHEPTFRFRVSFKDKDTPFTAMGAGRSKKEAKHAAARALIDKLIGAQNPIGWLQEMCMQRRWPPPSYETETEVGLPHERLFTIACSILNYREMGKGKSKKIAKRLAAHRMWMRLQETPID

Loqs-PD [6] = biological target: T5, Loqs-PD (Drosophila melanogaster, UniProt Q9VJY9-4 1-359); test: fluorescence anisotropy
T5 sequence: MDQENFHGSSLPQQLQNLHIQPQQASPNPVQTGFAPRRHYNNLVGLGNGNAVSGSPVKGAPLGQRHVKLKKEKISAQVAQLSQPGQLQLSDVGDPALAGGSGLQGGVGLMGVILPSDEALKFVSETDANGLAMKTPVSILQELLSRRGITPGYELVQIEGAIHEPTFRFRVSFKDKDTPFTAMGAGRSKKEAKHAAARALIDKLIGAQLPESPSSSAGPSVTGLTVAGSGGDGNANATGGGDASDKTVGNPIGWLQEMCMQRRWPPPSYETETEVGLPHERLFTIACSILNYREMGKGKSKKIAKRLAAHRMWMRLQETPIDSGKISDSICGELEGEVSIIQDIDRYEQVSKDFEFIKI

Loqs-PDΔNC [7] = biological target: T1, Loqs-PDΔNC; test: fluorescence anisotropy
Loqs dsRBD2 [8] = biological target: T2, Loqs dsRBD2; test: fluorescence anisotropy
Loqs dsRBD1 [9] = biological target: T3, Loqs dsRBD1; test: fluorescence anisotropy
Loqs-PDΔNC [10] = biological target: T1, Loqs-PDΔNC; test: NMR
Loqs-PD [11] = biological target: T5, Loqs-PD; test: 4-thioU UV cross-linking
Loqs-PDΔNC [12] = biological target: T1, Loqs-PDΔNC; test: 4-thioU UV cross-linking
Dcr-2;Loqs-PD [13] = biological target: T6, Dcr-2;Loqs-PD (Drosophila melanogaster;Drosophila …, UniProt A1ZAW0;Q9VJY9-4 1-1722;1-359, |); test: 4-thioU UV cross-linking
T6 sequence (A1ZAW0 whole entry, one chain of several): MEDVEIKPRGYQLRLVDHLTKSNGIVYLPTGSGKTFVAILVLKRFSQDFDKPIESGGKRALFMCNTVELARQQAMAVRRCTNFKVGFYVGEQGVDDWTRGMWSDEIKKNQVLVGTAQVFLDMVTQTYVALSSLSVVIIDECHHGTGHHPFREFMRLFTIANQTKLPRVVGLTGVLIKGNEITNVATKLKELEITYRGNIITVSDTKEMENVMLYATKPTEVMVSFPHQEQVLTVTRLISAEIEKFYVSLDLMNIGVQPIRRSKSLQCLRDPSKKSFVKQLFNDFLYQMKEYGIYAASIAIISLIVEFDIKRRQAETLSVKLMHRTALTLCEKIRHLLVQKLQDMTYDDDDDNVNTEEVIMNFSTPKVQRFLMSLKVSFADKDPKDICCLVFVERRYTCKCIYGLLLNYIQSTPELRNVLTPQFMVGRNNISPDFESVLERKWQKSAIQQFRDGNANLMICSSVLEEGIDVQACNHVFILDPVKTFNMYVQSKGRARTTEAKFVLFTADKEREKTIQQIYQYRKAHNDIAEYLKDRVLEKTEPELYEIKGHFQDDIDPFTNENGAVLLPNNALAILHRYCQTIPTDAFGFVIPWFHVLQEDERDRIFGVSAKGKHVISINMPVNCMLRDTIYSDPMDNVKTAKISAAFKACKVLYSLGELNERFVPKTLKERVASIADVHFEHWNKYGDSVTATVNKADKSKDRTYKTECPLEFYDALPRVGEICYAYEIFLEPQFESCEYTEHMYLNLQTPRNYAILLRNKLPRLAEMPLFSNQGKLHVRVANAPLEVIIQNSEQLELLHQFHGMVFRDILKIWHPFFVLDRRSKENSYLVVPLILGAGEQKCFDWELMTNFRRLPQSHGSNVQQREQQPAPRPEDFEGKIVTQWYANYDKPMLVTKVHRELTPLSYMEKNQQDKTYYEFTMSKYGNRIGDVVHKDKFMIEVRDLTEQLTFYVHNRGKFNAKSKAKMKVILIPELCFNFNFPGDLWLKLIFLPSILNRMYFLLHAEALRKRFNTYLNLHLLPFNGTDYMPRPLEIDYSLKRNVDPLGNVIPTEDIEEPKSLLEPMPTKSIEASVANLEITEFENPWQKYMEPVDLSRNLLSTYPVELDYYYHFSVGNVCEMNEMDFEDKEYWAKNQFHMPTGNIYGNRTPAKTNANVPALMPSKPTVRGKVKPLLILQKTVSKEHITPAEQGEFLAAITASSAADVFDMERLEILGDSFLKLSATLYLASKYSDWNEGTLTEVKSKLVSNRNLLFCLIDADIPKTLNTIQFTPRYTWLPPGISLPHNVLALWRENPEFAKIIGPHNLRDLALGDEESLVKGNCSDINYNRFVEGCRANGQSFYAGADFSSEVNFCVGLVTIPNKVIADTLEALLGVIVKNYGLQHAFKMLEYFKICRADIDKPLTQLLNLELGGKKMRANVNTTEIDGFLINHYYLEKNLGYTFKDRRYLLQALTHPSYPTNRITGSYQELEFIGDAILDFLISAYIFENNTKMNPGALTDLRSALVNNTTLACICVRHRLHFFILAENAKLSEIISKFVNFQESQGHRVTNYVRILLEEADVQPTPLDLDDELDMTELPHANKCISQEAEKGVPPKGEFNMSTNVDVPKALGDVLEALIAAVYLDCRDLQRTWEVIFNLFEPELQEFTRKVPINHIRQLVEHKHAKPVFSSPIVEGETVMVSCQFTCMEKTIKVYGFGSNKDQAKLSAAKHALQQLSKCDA

Loqs dsRBD2 [14] = biological target: T2, Loqs dsRBD2; test: 4-thioU UV cross-linking
Loqs dsRBD1 [15] = biological target: T3, Loqs dsRBD1; test: 4-thioU UV cross-linking
Dcr-2 = Dcr-2 (Drosophila melanogaster, UniProt A1ZAW0 1-1722); test: 4-thioU UV cross-linking
Dcr-2, sequence (A1ZAW0 whole entry): as the sequence (A1ZAW0 whole entry, one chain of several) above

Loqs-PDΔNC [16] = biological target: T1, Loqs-PDΔNC; test: NMR PRE
Dcr-2;Loqs-PD [17] = biological target: T6, Dcr-2;Loqs-PD; test: 4-thioU UV cross-linking; remark: listed apart in the source
Loqs-PDΔNC [18] = biological target: T1, Loqs-PDΔNC; test: NMR PRE; remark: listed apart in the source

B1: nicked siRNA, FITC (dsRNA)
RNA 1: UGAGAUCAUUUUGAAAGCUGAUU
RNA 2: UCAGCUUUCAA
RNA 3: AAUGAUCUCACU
modifications: nick between 11 and 12 of S1 strand; 5'-phosphate
B1: binds (Loqs-PDΔNC [1]); binds (Loqs dsRBD2 [2]).

B2: ban-siRNA, unlabeled (dsRNA)
RNA 1: UCAGCUUUCAAAAUGAUCUCACU
RNA 2: UGAGAUCAUUUUGAAAGCUGAUU
B2: binds (Loqs-PDΔNC [3]); binds (Loqs dsRBD2 [4]); binds (Loqs dsRBD1 [5]). B2: binds (Loqs-PDΔNC Δ41).

B3: 14 nt RNA, FITC (dsRNA)
RNA 1: UGAGAUCAUUUUGA
RNA 2: UCAAAAUGAUCUCAUU
modifications: 5'-phosphate
B3 was tested, and the Kd (Loqs-PD [6]) was 118 ± 15 nM, the Kd (Loqs-PDΔNC [7]) was 128 ± 41 nM and the Kd (Loqs dsRBD2 [8]) was 334 ± 8 nM. It also gave a Kd (Loqs dsRBD1 [9]) of 365 ± 62 nM.

B4: ban-siRNA GG variant, isotope-labeled (dsRNA)
RNA 1: GGAGCUUUCAAAAUGAUCUCCUU
RNA 2: GGAGAUCAUUUUGAAAGCUCCUU
B4: binds (Loqs-PDΔNC [10]).

B5: 35 nt dsRNA, FITC (dsRNA)
RNA 1: GAUUCAUACAAGUGAGAUCAUUUUGAAAGCUGAUU
RNA 2: UCAGCUUUCAAAAUGAUCUCACUUGUAUGAAUCAA
modifications: 5'-phosphate
With B5 the Kd (Loqs-PD [6]) was 62 ± 5 nM, the Kd (Loqs-PDΔNC [7]) was 86 ± 18 nM and the Kd (Loqs dsRBD2 [8]) was 229 ± 48 nM. The Kd (Loqs dsRBD1 [9]) was 191 ± 29 nM.

B6: ban-siRNA, 4-thioU series (dsRNA)
RNA 1: UCAGCUUUCAAAAUGAUCUCACU
RNA 2: UGAGAUCAUUUUGAAAGCUGAUU
modifications: one 4-thiouridine per duplex, position varied; 5'-phosphate
B6: binds (Loqs-PD [11]); binds (Loqs-PDΔNC [12]); binds (Dcr-2;Loqs-PD [13]). B6: binds (Loqs dsRBD2 [14]); binds (Loqs dsRBD1 [15]); binds (Dcr-2).

B7: highly asymmetric siRNA, TEMPO (dsRNA)
RNA 1: GUAACUUUCAAAAUGAGCGCCUU
RNA 2: GGCGCUCAUUUUGAAAGUUACUU
modifications: TEMPO at either 5' end
B7: binds (Loqs-PDΔNC [16]).

B8: nicked siRNA, passenger nicked, 4-thioU (dsRNA)
RNA 1: UGAGAUCAUUUUGAAAGCUGAUU
RNA 2: UCAGCUUUCAA
RNA 3: AAUGAUCUCACU
modifications: nick 11/12; 4-thiouridine in intact strand
B8: binds (Dcr-2;Loqs-PD [17]).

B9: ban-siRNA, FITC (dsRNA)
RNA 1: UGAGAUCAUUUUGAAAGCUGAUU
RNA 2: UCAGCUUUCAAAAUGAUCUCACU
modifications: 5'-phosphate
B9 was tested, and the Kd (Loqs-PD [6]) was 50 ± 6 nM, the Kd (Loqs-PDΔNC [7]) was 82 ± 21 nM and the Kd (Loqs dsRBD2 [8]) was 278 ± 24 nM. For the same binder, the Kd (Loqs dsRBD1 [9]) was 228 ± 27 nM.

B10: bantam miRNA/miRNA*, FITC (dsRNA)
RNA 1: UGAGAUCAUUUUGAAAGCUGAUU
RNA 2: UCGGUUUUCGAUUUGGUUUGACU
modifications: 5'-phosphate
With B10 the Kd (Loqs-PD [6]) was 118 ± 17 nM, the Kd (Loqs-PDΔNC [7]) was 97 ± 21 nM and the Kd (Loqs dsRBD2 [8]) was 241 ± 75 nM. It also gave a Kd (Loqs dsRBD1 [9]) of 233 ± 17 nM.

B11: ban-siRNA GG variant, TEMPO (dsRNA)
RNA 1: GGAGCUUUCAAAAUGAUCUCCUU
RNA 2: GGAGAUCAUUUUGAAAGCUCCUU
modifications: TEMPO at either 5' end (G1 or G24)
B11: binds (Loqs-PDΔNC [18]).
